Reference: patent publication US20230124973

T1: hTERT (191-306), purified
T1 chain: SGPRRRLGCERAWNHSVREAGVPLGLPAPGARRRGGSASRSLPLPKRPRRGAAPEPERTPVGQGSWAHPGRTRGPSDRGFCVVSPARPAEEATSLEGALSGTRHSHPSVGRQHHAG

B1: IKK2 (2-664) (protein)
chain: SWSPSLTTQTCGAWEMKERLGTGGFGNVIRWHNQETGEQIAIKQCRQELSPRNRERWCLEIQIMRRLTHPNVVAARDVPEGMQNLAPNDLPLLAMEYCQGGDLRKYLNQFENCCGLREGAILTLLSDIASALRYLHENRIIHRDLKPENIVLQQGEQRLIHKIIDLGYAKELDQGSLCTSFVGTLQYLAPELLEQQKYTVTVDYWSFGTLAFECITGFRPFLPNWQPVQWHSKVRQKSEVDIVVSEDLNGTVKFSSSLPYPNNLNSVLAERLEKWLQLMLMWHPRQRGTDPTYGPNGCFKALDDILNLKLVHILNMVTGTIHTYPVTEDESLQSLKARIQQDTGIPEEDQELLQEAGLALIPDKPATQCISDGKLNEGHTLDMDLVFLFDNSKITYETQISPRPQPESVSCILQEPKRNLAFFQLRKVWGQVWHSIQTLKEDCNRLQQGQRAAMMNLLRNNSCLSKMKNSMASMSQQLKAKLDFFKTSIQIDLEKYSEQTEFGITSDKLLLAWREMEQAVELCGRENEVKLLVERMMALQTDIVDLQRSPMGRKQGGTLDDLEEQARELYRRLREKPRDQRTEGDSQEMVRLLLQAIQSFEKKVRVIYTQLSKTVVCKQKALELLPKVEEVVSLMNEDEKTVVRLQEKRQKELWNLLKIACSK

Assays:
[1] = test system: hTERT (191-306), purified
[2] = target: T1, hTERT (191-306), purified

Molecule	in vitro kinase assay; phosphorylation site found by mass spectrometry and by Western blotting with Anti-hTERT pT249 [1]	in vitro kinase assay (negative control); phosphorylation sites found by mass spectrometry [2]
CDK1-cyclin B (New England Biolabs)	pT249 was detected from only a sample treated with CDK1	–
B1	–	pS206, pS274, pT283 and the like were detected from a sample treated with IKK2
